The source of these data is patent US20240059765A1 (ANNEXON, published 2024).

In this assay the target is human C1q (human, UniProt P02745 23-245; P02746 28-253; P02747 29-245). Kind of assay: cell-based or functional assay.
Chain of human C1q (P02745 23-245 limits assumed, chain 1 of 3): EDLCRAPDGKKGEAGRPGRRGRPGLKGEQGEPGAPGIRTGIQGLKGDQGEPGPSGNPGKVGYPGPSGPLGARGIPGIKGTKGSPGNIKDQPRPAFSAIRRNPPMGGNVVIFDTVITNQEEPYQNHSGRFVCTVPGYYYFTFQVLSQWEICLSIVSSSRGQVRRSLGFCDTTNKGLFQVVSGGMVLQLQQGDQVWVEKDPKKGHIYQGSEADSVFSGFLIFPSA
Chain of human C1q (P02746 28-253 limits assumed, chain 2 of 3): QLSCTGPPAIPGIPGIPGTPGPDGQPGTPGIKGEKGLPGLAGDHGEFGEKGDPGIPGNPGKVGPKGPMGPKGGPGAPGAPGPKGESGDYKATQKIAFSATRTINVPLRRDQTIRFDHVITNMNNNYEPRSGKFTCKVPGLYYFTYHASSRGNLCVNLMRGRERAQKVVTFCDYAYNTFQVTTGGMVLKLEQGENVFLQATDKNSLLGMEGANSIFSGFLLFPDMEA
Chain of human C1q (P02747 29-245 limits assumed, chain 3 of 3): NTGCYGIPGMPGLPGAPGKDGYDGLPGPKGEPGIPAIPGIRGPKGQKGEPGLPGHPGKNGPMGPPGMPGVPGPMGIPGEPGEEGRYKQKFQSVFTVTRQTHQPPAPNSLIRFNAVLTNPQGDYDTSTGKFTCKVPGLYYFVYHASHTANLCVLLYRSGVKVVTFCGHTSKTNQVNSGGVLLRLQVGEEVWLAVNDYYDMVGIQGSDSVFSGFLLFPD

B1: FabA (Fab)
heavy: QVQLVQSGAELKKPGASVKVSCKSSGYHFTSYWMHWVKQAPGQGLEWIGVIHPNSGSINYNEKFESRVTITVDKSTSTAYMELSSLRSEDTAVYYCAGERDSTEVLPMDYWGQGTTVTVSSASTKGPSVFPLAPSSKSTSGGTAALGCLVKDYFPEPVTVSWNSGALTSGVHTFPAVLQSSGLYSLSSVVTVPSSSLGTQTYICNVNHKPSNTKVDKKVEPKSCDKTHT
light: DVQITQSPSSLSASLGERATINCRASKSINKYLAWYQQKPGKAPKLLIYSGSTLQSGIPARFSGSGSGTDFTLTISSLEPEDFAMYYCQQHNEYPLTFGQGTKLEIKRTVAAPSVFIFPPSDEQLKSGTASVVCLLNNFYPREAKVQWKVDNALQSGNSQESVTEQDSKDSTYSLSSTLTLSKADYEKHKVYACEVTHQGLSSPVTKSFNRGEC
As for B1, the “IC50 of block of the classical pathway (Weislab ELISA, IgM-coated wells, C5b-9 detection)” value was at most 0.3 µg/mL.
